Consider 1 molecule from patent US20170340734A1 (INSERM INSTITUT NATIONAL DE LA SANT ET DE LA RECHERCHE M …, published 2017).

In assay [1] the target is T1, human AXL (human, UniProt P30530 26-449, limits assumed).
T1 construct: In the degradation, internalization and homodimerization experiments the receptor stood on the tumor cell surface; also called AXL receptor; human form of AXL
T1 sequence (looked up): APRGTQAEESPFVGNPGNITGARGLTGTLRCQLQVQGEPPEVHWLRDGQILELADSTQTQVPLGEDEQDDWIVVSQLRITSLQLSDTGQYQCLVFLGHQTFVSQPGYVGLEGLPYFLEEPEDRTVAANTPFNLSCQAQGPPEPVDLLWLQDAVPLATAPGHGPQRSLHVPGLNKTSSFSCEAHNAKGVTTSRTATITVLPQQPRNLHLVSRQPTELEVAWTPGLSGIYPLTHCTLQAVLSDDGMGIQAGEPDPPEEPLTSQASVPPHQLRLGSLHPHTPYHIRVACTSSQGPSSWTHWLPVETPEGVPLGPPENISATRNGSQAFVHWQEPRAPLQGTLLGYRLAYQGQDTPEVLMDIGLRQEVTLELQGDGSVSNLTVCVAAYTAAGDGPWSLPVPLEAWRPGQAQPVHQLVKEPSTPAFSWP
The experiment in a line: not described (FIG. 6).

Assay [2] has as its target T2, murine AXL (murine, UniProt Q00993 19-443, limits assumed).
T2 construct: also called murine form of AXL
T2 sequence (looked up): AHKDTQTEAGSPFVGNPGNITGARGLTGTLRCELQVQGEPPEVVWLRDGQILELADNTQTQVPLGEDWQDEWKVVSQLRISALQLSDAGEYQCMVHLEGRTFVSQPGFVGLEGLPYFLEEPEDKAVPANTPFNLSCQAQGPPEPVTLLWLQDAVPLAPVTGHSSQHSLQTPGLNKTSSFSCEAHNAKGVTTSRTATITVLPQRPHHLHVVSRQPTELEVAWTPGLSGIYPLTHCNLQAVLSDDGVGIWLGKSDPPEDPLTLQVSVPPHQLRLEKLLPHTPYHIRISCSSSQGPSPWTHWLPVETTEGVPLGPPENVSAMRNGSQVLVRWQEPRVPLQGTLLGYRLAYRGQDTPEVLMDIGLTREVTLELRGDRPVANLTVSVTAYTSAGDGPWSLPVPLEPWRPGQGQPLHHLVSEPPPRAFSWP
The assay is described as follows: not described (FIG. 6).

B1: human monoclonal antibody D4 (antibody, V domains shown)
VH: EVQLVESGGSLVKPGGSLRLSCAASGFTFSNYSMNWVRQAPGKGLEWISSISGSSRYIYYADFVKGRFTISRDNATNSLYLQMNSLRAEDTAVYYCVRGRKDSGTIYHWGRGTLVTVSS
VL: QSVLTQPASVSGSPGQSITISCAGTSSDVGGYNYVSWYQQHPGKAPKLMIYEDSKRPSGVSNRFSGSKSGNTASLTISGLQAEDEADYYCKKDDYSLRFTFGGGTKLAVLG
notes: also called D4 antibody; D4 human monoclonal antibody
B1: the binding result in assay [1] and in assay [2] was “binds” in each case.
